Results on 2 proteins are retold here after article PMC3662962.

Substrate in this series: O=[N+]([O-])c1ccc(OP(=O)(O)O)cc1
In words: purified protein. To be noted: pH 8.0; 37.0 °C.

B1: PAS+phosphatase fusion protein (Mycobacterium tuberculosis H37Rv) (protein)
chain: MAAEMDWDKTVGAAEDVRRIFEHIPAILVGLEGPDHRFVAVNAAYRGFSPLLDTVGQPAREVYPELEGQQIYEMLDRVYQTGEPQSGSEWRLQTDYDGSGVEERYFDFVVTPRRRADGSIEGVQLIVDDVTSRVRARQAAEARVEELSERYRNVRDSATVMQQALLAASVPVVPGADIAAEYLVAAEDTAAGGDWFDALALGDRLVLVVGDVVGHGVEAAAVMSQLRTALRMQISAGYTVVEALEAVDRFHKQVPGSKSATMCVGSLDFTSGEFQYCTAGHPPPLLVTADASARYVEPTGAGPLGSGTGFPVRSEVLNIGDAILFYTDGLIERPGRPLEASTAEFADLAASIASGSGGFVLDAPARPIDRLCSDTLELLLRSTGYNDDVTLLAMQRR
In general, Km refers to the substrate concentration at which the rate is half of its maximum. The term Vmax denotes the rate approached at saturating substrate. As to B1, the Km is 2.54 ± 0.35 mM and the Vmax amounted to 0.07 µmol/min/mg.

B2: RsbU phosphatase domain (Mycobacterium tuberculosis H37Rv) (protein)
chain: AAGGDWFDALALGDRLVLVVGDVVGHGVEAAAVMSQLRTALRMQISAGYTVVEALEAVDRFHKQVPGSKSATMCVGSLDFTSGEFQYCTAGHPPPLLVTADASARYVEPTGAGPLGSGTGFPVRSEVLNIGDAILFYTDGLIERPGRPLEASTAEFADLAASIASGSGGFVLDAPARPIDRLCSDTLELLLRSTGYNDDVTLLAMQRR
Take B2: the Michaelis-Menten constant (Km) stood at 7.47 ± 1.22 mM and the Vmax came out at 0.07 µmol/min/mg.
